Laboratory results: publication PMC3020944, “Structure-Activity Relationship of Cinnamaldehyde Analogs as Inhibitors of AI-2 Based Quorum Sensing and Their Effect on Virulence of Vibrio spp”

Target: T1, GST-LuxR (Vibrio harveyi, UniProt P21308 1-205)
T1 sequence: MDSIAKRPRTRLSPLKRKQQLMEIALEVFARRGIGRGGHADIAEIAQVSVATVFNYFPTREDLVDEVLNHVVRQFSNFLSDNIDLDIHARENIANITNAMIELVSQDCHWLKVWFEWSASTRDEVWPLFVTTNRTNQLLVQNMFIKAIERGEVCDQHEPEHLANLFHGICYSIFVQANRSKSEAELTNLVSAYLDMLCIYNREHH
Assay: fluorescence anisotropy; no inhibitor; Kd value only in Fig. 2B; 30°C; fluorescence polarisation, excitation 480 nm, emission 535 nm; binding buffer, salt and pH not given (as in ref 12); duplex annealed in NaCl-Tris-EDTA
Conditions: protein: recombinant; tags: GST; chain copies: 2; label: 5' fluorescein on strand 1; blunt

B1: V. harveyi consensus LuxR binding sequence (dsDNA)
DNA 1: TATTGATAAATTTATCAATAA
DNA 2: TTATTGATAAATTTATCAATA
binding result: binds
